{
  "source": "paper PMC2193355",
  "molecules": {"B1": {"name": "soluble α-DG (receptor)", "chain": "HWPSEPSEAVRDWENQLEASMHSVLSDLHEALPTVVGIPDGTAVVGRSFRVTIPTDLIGSSGEVIKVSTAGKEVLPSWLHWDPQSHTLEGLPLDTDKGVHYISVSAAQLDANGSHIPQTSSVFSIEVYPEDHSEPQSVRAASPDLGEAAASACAAEEPVTVLTVILDADLTKMTPKQRIDLLHRMQSFSEVELHNMKLVPVVNNRLFDMSAFMAGPGNAKKVVENGALLSWKLGCSLNQNSVPDIRGVEAPAREGTMSAQLGYPVVGWHIANKKPPLPKRIRRQIHATPTPVTAIGPPTTAIQEPPSRIVPTPTSPAIAPPTETMAPPVRDPVPGKPTVTTRTRGAIIQTPTLGPIQPTRVSDAGTVVSGQIRATVTIPGYVEPTAVATPPTTTTKKPRVSTPKPATPSTDSSATTTRRPTKKPRTPRPVPRVTTKAPITRLETASPPTRIRTTTSGVPRGGEPNQRPELKNHIDRVDAWVGTYFEVKIPSDTFYDKEDTTTDKLKLTLKLREQQLVGEKSWVQFNSNSQLMYGLPDSSHVGKHEYFMHATDKGGLSAVDAFEIHVHKRPQGDKAPARFKAKFVGDPAPVVNDIHKKIALVKKLAFAFGDRNCSTVTLQNITRG"}},
  "key": {"[1]": {"biological_target": "purified α-dystroglycan (α-DG) (UniProt Q28685)", "assay": "far-Western, overlay or dot blot"}, "[2]": {"biological_target": "low affinity viral binders", "assay": "competitive inhibition binding assay"}, "[3]": {"biological_target": "high affinity virus binders", "assay": "competitive inhibition binding assay"}},
  "data": [
    {"molecule": "LCMV WE c54 (purified virus; viral glycoprotein GP1/GP2) (complex)", "values": [
      {"measurement": "logs higher affinity than WE c2.2", "setting": "[1]", "result": 3, "unit": "logs"}
    ]},
    {"molecule": "B1", "values": [
      {"measurement": "concentration of soluble α-DG needed to block virus binding to α-DG cells", "setting": "[2]", "result": "> 400", "unit": "nM"},
      {"measurement": "concentration of soluble α-DG for 33% blocking of virus binding to α-DG cells", "setting": "[3]", "result": "1 to 4", "unit": "nM"}
    ]}
  ]
}
